Values quoted from earlier work, collected in patent US20250341526A1, “NOVEL DYES” (Quantum-Si Incorporated, priority 2024, published 2025).

Test system: amino acid at a terminal position of a polypeptide
Settings: Table 1, ClpS proteins; amino acid at terminal position; inferred from literature and/or demonstrated by the inventors; cited from earlier work

Molecule | Binding Pref.
PS424: ClpS amino acid recognition protein, SEQ ID NO: 47 (protein) MSVETIEKRSTTRKLAPQYRVLLHNDDYNSMEYVVQVLMTSVPSITQPQAVNIMMEAHNSGLALVITCAQEHAEFYCETLKGHGLSSTIEPD | F, Y, W
PS371: ClpS amino acid recognition protein, SEQ ID NO: 4 (protein) MATETIERPRTRDPGSGLGGHWLVIVLNDDHNTFDHVAKTLARVIPGVTVDDGYRFADQIHQRGQAIVWRGPKEPAEHYWEQLQDAGLSMAPLERH | F, Y, W, L
PS425: ClpS amino acid recognition protein, SEQ ID NO: 48 (protein) MTHYFSNILRDQESPKINPKELEQIDVLEEKEHQIILYNDDVNTFEHVIDCLVKICEHNYLQAEQCAYIVHHSGKCSVKTGSLDELVPKCNALLEEGLSAEVV | F, Y, W, L
PS426: ClpS amino acid recognition protein, SEQ ID NO: 49 (protein) MSIIEKTQENVAILEKVSINHEIILYNDDVNTFDHVIETLIRVCNHEELQAEQCAILVHYTGKCAVKTGSFDELQPLCLALLDAGLSAEIT | F, Y, W, L
PS427: ClpS amino acid recognition protein, SEQ ID NO: 50 (protein) MSTKEKVKERVREKEAISFNNEIIVYNDDVNTFDHVIETLIRVCNHTPEQAEQCSLIVHYNGKCTVKTGSMDKLKPQCTQLLEAGLSAEIV | F, W
PS430: ClpS amino acid recognition protein, SEQ ID NO: 53 (protein) MQPFEETYTDVLDEVVDTDVHNLVVFNDDVNTFDHVIETLIDVCKHTPEQAEQCTLLIHYKGKCSVKNGSWEELVPMRNEICRRGISAEVLK | F, Y, W, L
PS432: ClpS amino acid recognition protein, SEQ ID NO: 55 (protein) MIGVEARTSSAPELAIETEIRLAGLWHVIVINDPVNLMSYVVMVLRKIFGFDDTKARKHMLEVHENGRSIVWSGEREPAEAYANTLHQWHLSAVLERDETD | F, W
PS433: ClpS amino acid recognition protein, SEQ ID NO: 56 (protein) MMSSLKECSIQALPSLDEKTKTEEDLSVPWKVIVLNDPVNLMSYVVMVFRKVFGYNENKATKHMMEVHQLGKSVLWTGQREEAECYAYQLQRWRLQTILEKDD | F, Y, W, L
PS434: ClpS amino acid recognition protein, SEQ ID NO: 57 (protein) MSRLPWKQEAKFAATVIIDFPDATLEAPTIEKKEATEQQIEMPWNVVVHNDPVNLMSYVTMVFQRVFGYPRERAEKHMLEVHHSGRSILWSGLRERAELYVQQLHGYLLLATIEKTV | F, Y, W, L
PS372: ClpS amino acid recognition protein, SEQ ID NO: 5 (protein) MAFPARGKTAPKNEVRRQPPYNVILLNDDDHTYRYVIEMLQKIFGFPPEKGFQIAEEVDRTGRVILLTTSKEHAELKQDQVHSYGPDPYLGRPCSGSMTCVIEPAV | L, I, V
PS435: ClpS amino acid recognition protein, SEQ ID NO: 58 (protein) MTLSVALGPDTQESTQTGTAVSTDTLTAPDIPWNLVIWNDPVNLMSYVSYVFQSYFGYSETKANKLMMEVHKKGRSIVAHGSKEQVEQHAVAMHGYGLWATVEKATGGNSGGGKSGGPGKGKGKRG | F, Y, W, L
PS545: ClpS amino acid recognition protein, SEQ ID NO: 59 (protein, listed as Planctomycetales bacterium) MSEPMTLPAIPQPRLKERTQRQPPYNVILLNDDDHSYEYVIAMLQVLFGYPREKGYQMAKEVDSTGRVILLTTTREHAELKQEQIHAFGPDPLMARCQGSMTAVIEPAV | I, L, V
PS546: ClpS amino acid recognition protein, SEQ ID NO: 60 (protein, listed as Planctomycetia bacterium) MSDTITLPGRPEVERDERTRRQPPYNVILHNDDDHTFEYVIVMLNQLFGYPPEKGYEMAKEVHLNGRVIVLTTSKEHAELKRDQIHAFGPDPFSSKDCKGSMSASIEPAY | I, L, V
PS547: ClpS amino acid recognition protein, SEQ ID NO: 61 (protein, listed as Gemmataceae bacterium) MGFPTDFRQSIEISTPLGSQQPRFSNASSEPALADPVLVINPRIQPRYHVILLNDDDHTYRYVIEMMLIVFGHPPEKGFLIAKEVDKAGRAICLTTSLEHAEFKQEQVHAYGADPYFGPKCKGSMTAVLEPAE | I, L, V
PS548: ClpS amino acid recognition protein, SEQ ID NO: 62 (protein, listed as Gemmataceae bacterium) MSDTITLPEEKTDVRTKRQPPYHVILLNDDDHTYQYVIYMLQTLFGHPPETGFKMAQEVDKTGRVIVDTTSLERAELKRDQIHAFGPDPYIERCKGSMSAMIEPSE | I, L, V
PS549: ClpS amino acid recognition protein, SEQ ID NO: 63 (protein, listed as Planctomycetes bacterium) MSESITTLPKKSRRLKEEEEQKTKRQPPYNVILLNDDDHTFEYVIFMLQKLFGHPPERGMQMAKEVHTTGRVIVMTTALELAELKRDQIHAFGPDPLIDRCKGSMSATIEPAPI | I, L, V
PS550: ClpS amino acid recognition protein, SEQ ID NO: 64 (protein, listed as Planctomycetes bacterium) MPTFTEPEVVNDTRILPPYHVILLNDDDHTYEYVIHMLQTLFGHPQERGFQLAVEVDKKGKAIVFTTSKEHAEFKRDQIHAFGADPLSSKNCKGSMSAVIEPSF | I, L, V
PS551: ClpS amino acid recognition protein, SEQ ID NO: 65 (protein, listed as Rubrobacter indicoceani) MPSAAPAKPKTKRQSRTQGMPPYNVVLLDDDDHTYGYVIEMLNKVFGHPPEKGFELATEVDKNGRVIVMTTNLEVAELKRDEVHAFGPDPLMPRSKGSMSAVVERAG | I, L, V
PS552: ClpS amino acid recognition protein, SEQ ID NO: 66 (protein, Fimbriiglobus ruber) MSKTSTLPEVESESAQKLKYQPPYHVILLNDDDHSYVYVITMLKELFGHPEQKGYQLADAVDKQGRAIVFTTTREHAELKQEQIHAYGPDPTIPRCKGAMTAVIEPAE | I, L, V
PS553: ClpS amino acid recognition protein, SEQ ID NO: 67 (protein, listed as Planctomycetes bacterium) MPASASAVTEPPVSLPEAAAPRPKDRPKRQPRYHVILWNDDDHTYQYVVAMLRQLFGHPPEKGFTLAKQVDKDGRVVVLTTTKEHAELKRDQIHAFGADRLLARSKGSMSASIEPEASTG | I, L, V
PS554: ClpS amino acid recognition protein, SEQ ID NO: 68 (protein, listed as Planctomycetia bacterium) MSDSASATVEVQADPPADATARSQPTPARSTGSKPKRQPRYHVVLWNDDDHTYEYVIAMLRRLFGIEPEKGFRIAEEVDQSGRAVVLTTTREHAELKRDQIHAFGADRLLARSKGSMSASIEPEA | I, L, V
PS555: ClpS amino acid recognition protein, SEQ ID NO: 69 (protein, listed as Planctomycetes bacterium) MADSAQTGVAEPIQETLRRRKLRDDRRPKRQPPYHVILWNDNDHTYAYVVVMLMQLFGYPAEKGYQLASEVDTQGRAVVLTTTKEHAELKRDQIHAYGKDGLIEKCKGSMWATIEPAPGE | I, L, V
PS556: ClpS amino acid recognition protein, SEQ ID NO: 70 (protein, listed as Blastopirellula marina) MGDSNTSVAEPGEVTVVTTKPAPKKAKPKRQPKYHVVLWNDDDHTYEYVILMMHELFGHPVEKGFQIAKTVDADGRAICLTTTKEHAELKRDQIHAYGKDELIARCRGSMSSTIEPEC | I, L, V
PS557: ClpS amino acid recognition protein, SEQ ID NO: 71 (protein, listed as Planctomycetia bacterium) MPTAASATESAIEDTPAPARPEVDGRTKPKRQPRYHVVLWNDDDHTYQYVVVMLQSLFGHPPERGYRLAKEVDTQGRVIVLTTTREHAELKRDQIHAFGYDRLLARSKGSMKASIEAEE | I, L, V
PS558: ClpS amino acid recognition protein, SEQ ID NO: 72 (protein, listed as Planctomycetia bacterium) MTATTADPDRTTAEKTTKKARRSGQPKRQPRYHVILWNDNDHTYQYVVAMLQQLFGHPATTGLKLATEVDRTGRAVILTTTREHAELKRDQIHAFGADRLLARSKGAMSASIEPEAE | I, L, V
PS559: ClpS amino acid recognition protein, SEQ ID NO: 73 (protein, listed as Planctomycetaceae bacterium) MNQAAISPNPDIKPNPSTHKKRASQRQPRYHVILWNDNDHTYHYVVTMLQKLFGHPPRTGIKMATEVDKKGKVIVLTTSREHAELKRDQIHAFGADKLIRRSKGAMAASIEPES | I, L, V
PS560: ClpS amino acid recognition protein, SEQ ID NO: 74 (protein, listed as Planctomycetes bacterium) MTETITTPAERTQTQAEPRSDRAWLWNVVLLDDDEHTYEYVIRMLHTLFGMPVERAFRLAEEVDARGRAVVLTTHKEHAELKRDQVHAFGKDALIASCAGSMSAVLEPAECGSDDED | I, L, V
